Assay results from patent publication US20200377590A1 (Hoffmann-La Roche, published 2020).

Molecular target: T1, CD81 (UniProt P60033 1-236, limits assumed)
T1 construct: whole, on cells; also called CD81 receptor
T1 sequence (looked up): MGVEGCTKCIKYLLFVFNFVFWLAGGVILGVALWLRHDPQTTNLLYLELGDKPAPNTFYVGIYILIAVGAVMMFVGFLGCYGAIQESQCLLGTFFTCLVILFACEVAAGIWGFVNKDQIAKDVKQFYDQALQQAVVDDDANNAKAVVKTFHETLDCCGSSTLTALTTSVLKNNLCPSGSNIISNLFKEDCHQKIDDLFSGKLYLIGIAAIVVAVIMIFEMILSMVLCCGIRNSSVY
Assay: cell ELISA;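 further: antibody binding to HuH7 cells expressing CD81 versus a CD81-negative HuH7 control line, bound antibody detected by secondary reagent, absorbance at 450 nm with 620 nm reference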

B1: CD81K04 HC GG-02-hVH_1_69 / LC GG-02-hVK_4_1 (antibody, V domains shown)
VH: QVQLVQSGAEVKKPGSSVKVSCKASGYTFSSSWMNWVRQAPGQGLEWMGRIYSGDGDAIYNQKFQGRVTITADESTSTAYMELSSLRSEDTAVYYCAREGKTGDLLLRSWGQGTLVTVSS
VL: DIVMTQSPDSLAVSLGERATINCKSSKSVSTSIYSYMHWYQQKPGQPPKLLIYYASYRESGVPDRFSGSGSGTDFTLTISSLQAEDVAVYYCQHSREFPFTFGQGTKLEIK
notes: human constant region
- ELISA data: 0.22

B2: CD81K04 HC GG-05-hVH_1_18 / LC GG-02-hVK_4_1 (antibody, V domains shown)
VH: QVQLVQSGAEVKKPGASVKVSCKASGYTFSSSWMNWVRQAPGQGLEWMGRIYSGDGDAIYAQKLQGRVTMTTDTSTSTAYMELRSLRSDDTAVYYCAREGKTGDLLLRSWGQGTLVTVSS
VL: DIVMTQSPDSLAVSLGERATINCKSSKSVSTSIYSYMHWYQQKPGQPPKLLIYYASYRESGVPDRFSGSGSGTDFTLTISSLQAEDVAVYYCQHSREFPFTFGQGTKLEIK
notes: human constant region
- ELISA data: 0.664

B3: CD81K04 HC GG-04-hVH_1_69 / LC GG-02-hVK_4_1 (antibody, V domains shown)
VH: QVQLVQSGAEVKKPGSSVKVSCKASGYTFSSSWMNWVRQAPGQGLEWMGRIYSGDGDAIYNQKFQGRATITADESTSTAYMELSSLRSEDTAVYYCAREGKTGDLLLRSWGQGTLVTVSS
VL: DIVMTQSPDSLAVSLGERATINCKSSKSVSTSIYSYMHWYQQKPGQPPKLLIYYASYRESGVPDRFSGSGSGTDFTLTISSLQAEDVAVYYCQHSREFPFTFGQGTKLEIK
notes: human constant region
- ELISA data: 0.27

B4: CD81K04 HC GG-04-hVH_1_69 / LC GG-03-hVK_4_1 (antibody, V domains shown)
VH: QVQLVQSGAEVKKPGSSVKVSCKASGYTFSSSWMNWVRQAPGQGLEWMGRIYSGDGDAIYNQKFQGRATITADESTSTAYMELSSLRSEDTAVYYCAREGKTGDLLLRSWGQGTLVTVSS
VL: DIVMTQSPDSLAVSLGERATINCKSSKSVSTSIYSYLAWYQQKPGQPPKLLIYYASYRESGVPDRFSGSGSGTDFTLTISSLQAEDVAVYYCQHSREFPFTFGQGTKLEIK
notes: human constant region
- ELISA data: 0.162

B5: CD81K04 HC GG-03-hVH_1_69 / LC JA_GG-09-hVK_4_1 (antibody, V domains shown)
VH: QVQLVQSGAEVKKPGSSVKVSCKASGYTFSSSWMNWVRQAPGQGLEWMGRIYSGDGDAIYAQKFQGRVTITADESTSTAYMELSSLRSEDTAVYYCAREGKTGDLLLRSWGQGTLVTVSS
VL: DIVMTQSPDSLAVSLGERATINCKSSKSVSTSIYSYMHWYQQKPGQPPKLLIKYASTRESGVPDRFSGSGSGTDFTLTISSLQAEDVAVYYCEHSREFPFTFGQGTKLEIK
notes: human constant region
- ELISA data: 0.832

B6: CD81K04 HC GG-04-hVH_1_69 / LC GG-04-hVK_4_1 (antibody, V domains shown)
VH: QVQLVQSGAEVKKPGSSVKVSCKASGYTFSSSWMNWVRQAPGQGLEWMGRIYSGDGDAIYNQKFQGRATITADESTSTAYMELSSLRSEDTAVYYCAREGKTGDLLLRSWGQGTLVTVSS
VL: DIVMTQSPDSLAVSLGERATINCKSSKSVSTSIYSYLAWYQQKPGQPPKLLIYYASTRESGVPDRFSGSGSGTDFTLTISSLQAEDVAVYYCQHSREFPYTFGQGTKLEIK
notes: human constant region
- ELISA data: 0.141

B7: CD81K04 HC GG-03-hVH_1_69 / LC GG-03-hVK_4_1 (antibody, V domains shown)
VH: QVQLVQSGAEVKKPGSSVKVSCKASGYTFSSSWMNWVRQAPGQGLEWMGRIYSGDGDAIYAQKFQGRVTITADESTSTAYMELSSLRSEDTAVYYCAREGKTGDLLLRSWGQGTLVTVSS
VL: DIVMTQSPDSLAVSLGERATINCKSSKSVSTSIYSYLAWYQQKPGQPPKLLIYYASYRESGVPDRFSGSGSGTDFTLTISSLQAEDVAVYYCQHSREFPFTFGQGTKLEIK
notes: human constant region
- ELISA data: 0.165

B8: CD81K04 HC GG-03-hVH_1_69 / LC JA_GG-10-hVK_4_1 (antibody, V domains shown)
VH: QVQLVQSGAEVKKPGSSVKVSCKASGYTFSSSWMNWVRQAPGQGLEWMGRIYSGDGDAIYAQKFQGRVTITADESTSTAYMELSSLRSEDTAVYYCAREGKTGDLLLRSWGQGTLVTVSS
VL: DIVMTQSPDSLAVSLGERATINCRASKSVSTSIYSYMHWYQQKPGQPPKLLIKYASYLESGVPDRFSGSGSGTDFTLTISSLQAEDVAVYYCEHSREFPFTFGQGTKLEIK
notes: human constant region
- ELISA data: 0.691

B9: CD81K04 HC GG-05-hVH_1_18 / LC GG-04-hVK_4_1 (antibody, V domains shown)
VH: QVQLVQSGAEVKKPGASVKVSCKASGYTFSSSWMNWVRQAPGQGLEWMGRIYSGDGDAIYAQKLQGRVTMTTDTSTSTAYMELRSLRSDDTAVYYCAREGKTGDLLLRSWGQGTLVTVSS
VL: DIVMTQSPDSLAVSLGERATINCKSSKSVSTSIYSYLAWYQQKPGQPPKLLIYYASTRESGVPDRFSGSGSGTDFTLTISSLQAEDVAVYYCQHSREFPYTFGQGTKLEIK
notes: human constant region
- ELISA data: 0.187

B10: CD81K04 HC GG-02-hVH_1_69 / LC JA_GG-10-hVK_4_1 (antibody, V domains shown)
VH: QVQLVQSGAEVKKPGSSVKVSCKASGYTFSSSWMNWVRQAPGQGLEWMGRIYSGDGDAIYNQKFQGRVTITADESTSTAYMELSSLRSEDTAVYYCAREGKTGDLLLRSWGQGTLVTVSS
VL: DIVMTQSPDSLAVSLGERATINCRASKSVSTSIYSYMHWYQQKPGQPPKLLIKYASYLESGVPDRFSGSGSGTDFTLTISSLQAEDVAVYYCEHSREFPFTFGQGTKLEIK
notes: human constant region
- ELISA data: 0.643

B11: CD81K04 HC GG-03-hVH_1_69 / LC GG-02-hVK_4_1 (antibody, V domains shown)
VH: QVQLVQSGAEVKKPGSSVKVSCKASGYTFSSSWMNWVRQAPGQGLEWMGRIYSGDGDAIYAQKFQGRVTITADESTSTAYMELSSLRSEDTAVYYCAREGKTGDLLLRSWGQGTLVTVSS
VL: DIVMTQSPDSLAVSLGERATINCKSSKSVSTSIYSYMHWYQQKPGQPPKLLIYYASYRESGVPDRFSGSGSGTDFTLTISSLQAEDVAVYYCQHSREFPFTFGQGTKLEIK
notes: human constant region
- ELISA data: 0.44

B12: CD81K04 HC GG-02-hVH_1_69 / LC GG-04-hVK_4_1 (antibody, V domains shown)
VH: QVQLVQSGAEVKKPGSSVKVSCKASGYTFSSSWMNWVRQAPGQGLEWMGRIYSGDGDAIYNQKFQGRVTITADESTSTAYMELSSLRSEDTAVYYCAREGKTGDLLLRSWGQGTLVTVSS
VL: DIVMTQSPDSLAVSLGERATINCKSSKSVSTSIYSYLAWYQQKPGQPPKLLIYYASTRESGVPDRFSGSGSGTDFTLTISSLQAEDVAVYYCQHSREFPYTFGQGTKLEIK
notes: human constant region
- ELISA data: 0.075

B13: CD81K04 HC GG-03-hVH_1_69 / LC JA_GG-08-hVK_4_1 (antibody, V domains shown)
VH: QVQLVQSGAEVKKPGSSVKVSCKASGYTFSSSWMNWVRQAPGQGLEWMGRIYSGDGDAIYAQKFQGRVTITADESTSTAYMELSSLRSEDTAVYYCAREGKTGDLLLRSWGQGTLVTVSS
VL: DIVMTQSPDSLAVSLGERATINCKSSKSVSTSIYSYMHWYQQKPGQPPKLLIKYASYLESGVPDRFSGSGSGTDFTLTISSLQAEDVAVYYCEHSREFPFTFGQGTKLEIK
notes: human constant region
- ELISA data: 0.815

B14: CD81K04 HC GG-02-hVH_1_69 / LC JA_GG-09-hVK_4_1 (antibody, V domains shown)
VH: QVQLVQSGAEVKKPGSSVKVSCKASGYTFSSSWMNWVRQAPGQGLEWMGRIYSGDGDAIYNQKFQGRVTITADESTSTAYMELSSLRSEDTAVYYCAREGKTGDLLLRSWGQGTLVTVSS
VL: DIVMTQSPDSLAVSLGERATINCKSSKSVSTSIYSYMHWYQQKPGQPPKLLIKYASTRESGVPDRFSGSGSGTDFTLTISSLQAEDVAVYYCEHSREFPFTFGQGTKLEIK
notes: human constant region
- ELISA data: 0.783

B15: CD81K04 HC GG-04-hVH_1_69 / LC JA_GG-10-hVK_4_1 (antibody, V domains shown)
VH: QVQLVQSGAEVKKPGSSVKVSCKASGYTFSSSWMNWVRQAPGQGLEWMGRIYSGDGDAIYNQKFQGRATITADESTSTAYMELSSLRSEDTAVYYCAREGKTGDLLLRSWGQGTLVTVSS
VL: DIVMTQSPDSLAVSLGERATINCRASKSVSTSIYSYMHWYQQKPGQPPKLLIKYASYLESGVPDRFSGSGSGTDFTLTISSLQAEDVAVYYCEHSREFPFTFGQGTKLEIK
notes: human constant region
- ELISA data: 0.762

B16: CD81K04 HC GG-02-hVH_1_69 / LC GG-03-hVK_4_1 (antibody, V domains shown)
VH: QVQLVQSGAEVKKPGSSVKVSCKASGYTFSSSWMNWVRQAPGQGLEWMGRIYSGDGDAIYNQKFQGRVTITADESTSTAYMELSSLRSEDTAVYYCAREGKTGDLLLRSWGQGTLVTVSS
VL: DIVMTQSPDSLAVSLGERATINCKSSKSVSTSIYSYLAWYQQKPGQPPKLLIYYASYRESGVPDRFSGSGSGTDFTLTISSLQAEDVAVYYCQHSREFPFTFGQGTKLEIK
notes: human constant region
- ELISA data: 0.142

B17: CD81K04 HC GG-03-hVH_1_69 / LC GG-04-hVK_4_1 (antibody, V domains shown)
VH: QVQLVQSGAEVKKPGSSVKVSCKASGYTFSSSWMNWVRQAPGQGLEWMGRIYSGDGDAIYAQKFQGRVTITADESTSTAYMELSSLRSEDTAVYYCAREGKTGDLLLRSWGQGTLVTVSS
VL: DIVMTQSPDSLAVSLGERATINCKSSKSVSTSIYSYLAWYQQKPGQPPKLLIYYASTRESGVPDRFSGSGSGTDFTLTISSLQAEDVAVYYCQHSREFPYTFGQGTKLEIK
notes: human constant region
- ELISA data: 0.07

B18: CD81K04 HC GG-04-hVH_1_69 / LC JA_GG-08-hVK_4_1 (antibody, V domains shown)
VH: QVQLVQSGAEVKKPGSSVKVSCKASGYTFSSSWMNWVRQAPGQGLEWMGRIYSGDGDAIYNQKFQGRATITADESTSTAYMELSSLRSEDTAVYYCAREGKTGDLLLRSWGQGTLVTVSS
VL: DIVMTQSPDSLAVSLGERATINCKSSKSVSTSIYSYMHWYQQKPGQPPKLLIKYASYLESGVPDRFSGSGSGTDFTLTISSLQAEDVAVYYCEHSREFPFTFGQGTKLEIK
notes: human constant region
- ELISA data: 0.773

B19: CD81K04 HC GG-04-hVH_1_69 / LC JA_GG-09-hVK_4_1 (antibody, V domains shown)
VH: QVQLVQSGAEVKKPGSSVKVSCKASGYTFSSSWMNWVRQAPGQGLEWMGRIYSGDGDAIYNQKFQGRATITADESTSTAYMELSSLRSEDTAVYYCAREGKTGDLLLRSWGQGTLVTVSS
VL: DIVMTQSPDSLAVSLGERATINCKSSKSVSTSIYSYMHWYQQKPGQPPKLLIKYASTRESGVPDRFSGSGSGTDFTLTISSLQAEDVAVYYCEHSREFPFTFGQGTKLEIK
notes: human constant region
- ELISA data: 0.918

B20: CD81K04 HC GG-05-hVH_1_18 / LC JA_GG-08-hVK_4_1 (antibody, V domains shown)
VH: QVQLVQSGAEVKKPGASVKVSCKASGYTFSSSWMNWVRQAPGQGLEWMGRIYSGDGDAIYAQKLQGRVTMTTDTSTSTAYMELRSLRSDDTAVYYCAREGKTGDLLLRSWGQGTLVTVSS
VL: DIVMTQSPDSLAVSLGERATINCKSSKSVSTSIYSYMHWYQQKPGQPPKLLIKYASYLESGVPDRFSGSGSGTDFTLTISSLQAEDVAVYYCEHSREFPFTFGQGTKLEIK
notes: human constant region
- ELISA data: 0.881

B21: CD81K04 HC GG-02-hVH_1_69 / LC JA_GG-08-hVK_4_1 (antibody, V domains shown)
VH: QVQLVQSGAEVKKPGSSVKVSCKASGYTFSSSWMNWVRQAPGQGLEWMGRIYSGDGDAIYNQKFQGRVTITADESTSTAYMELSSLRSEDTAVYYCAREGKTGDLLLRSWGQGTLVTVSS
VL: DIVMTQSPDSLAVSLGERATINCKSSKSVSTSIYSYMHWYQQKPGQPPKLLIKYASYLESGVPDRFSGSGSGTDFTLTISSLQAEDVAVYYCEHSREFPFTFGQGTKLEIK
notes: human constant region
- ELISA data: 0.792
